# From patent publication US20240209100A1 (DIAGONAL THERAPEUTICS, published 2024)
# T1: IL-18 receptor (IL-18Rα/IL-18Rβ) overexpressed on HEK-Blue IL-18 cells (Homo sapiens (Human), UniProt Q13478 19-541; O95256 20-599)
# T1 sequence 1: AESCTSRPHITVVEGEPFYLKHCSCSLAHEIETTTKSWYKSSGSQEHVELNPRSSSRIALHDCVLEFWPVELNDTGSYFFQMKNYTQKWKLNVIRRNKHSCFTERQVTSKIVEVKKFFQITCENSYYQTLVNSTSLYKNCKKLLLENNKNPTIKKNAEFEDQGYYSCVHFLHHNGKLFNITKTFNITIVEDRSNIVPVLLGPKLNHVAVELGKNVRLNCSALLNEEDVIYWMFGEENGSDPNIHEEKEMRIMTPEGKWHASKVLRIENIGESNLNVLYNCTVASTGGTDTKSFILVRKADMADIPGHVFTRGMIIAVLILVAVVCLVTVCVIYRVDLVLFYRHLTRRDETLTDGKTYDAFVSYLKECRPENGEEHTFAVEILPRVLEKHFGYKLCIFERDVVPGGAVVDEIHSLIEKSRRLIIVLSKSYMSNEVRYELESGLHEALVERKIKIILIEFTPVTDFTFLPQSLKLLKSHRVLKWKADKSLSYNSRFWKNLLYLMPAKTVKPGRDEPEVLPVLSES
# T1 sequence 2: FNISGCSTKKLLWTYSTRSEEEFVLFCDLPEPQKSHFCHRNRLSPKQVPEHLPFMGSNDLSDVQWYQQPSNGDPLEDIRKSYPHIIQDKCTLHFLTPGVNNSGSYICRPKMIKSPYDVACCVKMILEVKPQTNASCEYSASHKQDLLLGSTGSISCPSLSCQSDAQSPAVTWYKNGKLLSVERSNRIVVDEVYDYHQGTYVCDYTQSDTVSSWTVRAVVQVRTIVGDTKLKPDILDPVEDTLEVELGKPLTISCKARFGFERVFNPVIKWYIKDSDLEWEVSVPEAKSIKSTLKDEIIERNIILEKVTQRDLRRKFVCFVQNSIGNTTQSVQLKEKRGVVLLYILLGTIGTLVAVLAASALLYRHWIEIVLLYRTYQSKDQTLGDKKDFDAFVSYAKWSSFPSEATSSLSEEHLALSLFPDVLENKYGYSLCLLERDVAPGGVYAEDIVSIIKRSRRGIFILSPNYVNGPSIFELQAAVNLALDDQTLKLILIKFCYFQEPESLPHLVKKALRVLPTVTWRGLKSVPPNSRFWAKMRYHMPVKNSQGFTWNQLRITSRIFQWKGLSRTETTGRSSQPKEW
# Molecular target: T1, IL-18 receptor (IL-18Rα/IL-18Rβ) …
# Assay: cell-based or functional assay
Binder,HEK-Blue IL-18: Abs405 (Emax),HEK-Blue IL-18: EC50
"DGL079 (bispecific antibody, V domains shown) V domain 1: EVQLVESGGGLVQAGGSLRLSCAASGRTFSNYDMGWFRQAPEKEREFVAVISGPGGIAFYGDSVKGRFTISRDNTKNTVYLQMNRLKSEDTAVYYCAAAPRGSYYRRTNSYDYWGQGTQVTVSS V domain 2: EVQLVESGGGVAQAGGSLRLSCAASITSFSLNTMGYYRQLPGKQRELVAVESSSGITNYADSVKGRFTISRDGAKNTVFLQMNSLTPEDTAVYYCGGKLFGRDFWGQGTQVTVSS",0.32 Abs,0.017 nM
"DGL082 (bispecific antibody, V domains shown) V domain 1: EVQLVESGGGLVQPGGSLRLSCAASGSIFSINAMGWYRQAPGKQREVVATSTGGGMTNYADSVKGRFTISRDNAKNTVYLQMNSLKPEDTAVYYCNADKDPFFPGDYWGQGTQVTVSS V domain 2: QVQLVESGGGLVQAGGSLRLSCAASGRSVSENDVRWYRQAPRKQREWVAAITSSGITGYADSVRIRFTISRDLAKNTVYLQMNSLKPEDTAVYYCYMTDQYWGQGTQVTVSS",0.47 Abs,0.012 nM
"DGL090 (bispecific antibody, V domains shown) V domain 1: EVQLVESGGGLVQPGGSLRLSCAASGFFLDDYVLGWFRQAPGKPREGVSCISSRGRYLNYAETVKGRFTISRSNAKNTVYLQMNNLEPEDTAVYYCAAVRRVSEVCKLAEDDFASWGQGTQVTVSS V domain 2: QVQLQESGGGLVQAGGSLKLSCQASGLTFKRNTMGWFRQAPGKEREFVAHFLWTGGETDYADAVKGRFTISRDNAKNTVYLQMNSLKPEDTAVYFCAANYAGYRIDGYQYWGQGTQVTVSS",0.26 Abs,0.033 nM
"DGL091 (bispecific antibody, V domains shown) V domain 1: QVQLVESGGGLVQAGGSLRLSCAASGRTFSKHAMGWFRQAPGKEREFVAAIDWSGGSTYYADSVKGRFTISRDNAKNTVYLQMDSLKPEDTAVYYCAADSYTDYAQLWLPELESEYDYWGQGTQVTVSS V domain 2: QVQLVESGGGLVQAGDSLRLSCVASERTFSSYTMGWFRQAPGKEREFTAALSWWNGGISTAYADSVKGRFTISRDNAKNTVYLQMNSLKTEDTALYYCAAARDRMPRADEYDYWGQGTQVTVSS",0.35 Abs,0.032 nM
"DGL092 (bispecific antibody, V domains shown) V domain 1: QVQLVESGGGLVQAGGSLRLSCAASGRTFSKHAMGWFRQAPGKEREFVAAIDWSGGSTYYADSVKGRFTISRDNAKNTVYLQMDSLKPEDTAVYYCAADSYTDYAQLWLPELESEYDYWGQGTQVTVSS V domain 2: EVQLVESGGGLVQAGGSLRLSCAASGRTFRNYHMGWFRQAPGQEREFVAAISSSGGKTSYPDSVNGRFTISRDNAKNTVYLQMNNLKVEDTAVYYCAADPRYWVAAGGSEPENVEVWGQGTLVTVSS",0.61 Abs,0.019 nM
"DGL094 (bispecific antibody, V domains shown) V domain 1: QVQLVESGGGLVQAGGSLRLSCAASGRTFSSYTMGWFRQAPGKEREFVAAISWSAGRTYYADSVKGRFTISRDNAKNTVYLQMNSLKPEDTAVYFCAAEEAPDWAPIDCSGYGCLSLYDYWGQGTQVTVSS V domain 2: QVQLVESGGGLVLPGESLRLSCVVSGTIDNINSMGWYRQAPGKQRELVAYITKLGSANYADSVEGRFTISRDNAKKTVHLQMNSLKPEDTAVYYCHANERGRITWAQGTQVTVSS",0.7 Abs,0.019 nM
"DGL097 (bispecific antibody, V domains shown) V domain 1: QVQLVESGGGLVQAGGSLRLSCAASGRTFSSYDMGWFRQAPGKEREFVAALRWSGGSTSYADSVKGRFTISRDNAKNTVYLHMNSLKPEDTAVYYCAATLETDSGTYWADYWGQGTQVTVSS V domain 2: QVQLVESGGGLVQAGGSLRLSCVASGTFFQIHVMGWYRQAPGKQRELVAFIINNGGTRYADSVKGRFTISRDYAKNTVYLQMNSLKPEDTAVYYCNTEGTYRGRYSTDNWGQGTQVTVSS",0.45 Abs,0.014 nM
"DGL049 (bispecific antibody, V domains shown) V domain 1: QVQLQESGGGLVQAGGSLRLSCIVSGSIVRIDFMGWYRQAPGKKRDMVATITTGGSTNYADSVKDRFTISRDNAKNTLSLQVNDLKPEDTAVYYCNSVVHTTSRPPVLYWGQGTQVTVSS V domain 2: QVQLVESGGDLVLPGGSLKLSCEASGSISSRNSMAWYRRAPGKQRELVAAISSISSGGRTDYADFVKGRFTIFRDTAKNMVYLQMNNLKPEDTAVYDCDDPIRVASLAYDDWGQGTQVTVSS",0.34 Abs,0.01 nM

# Molecular target: T1, IL-18 receptor (IL-18Rα/IL-18Rβ) …
# Assay: cell-based or functional assay
# Remark: another data set of the same source
Binder,HEK-Blue IL-18: Abs 405 at 100 nM,HEK-Blue IL-18: Fold over Background
DGL208 (bispecific antibody) heavy 1: QVQLVESGGGLVQAGGSLRLSCAASGRTFSKHAMGWFRQAPGKEREFVAAIDWSGGSTYYADSVKGRFTISRDNAKNTVYLQMDSLKPEDTAVYYCAADSYTDYAQLWLPELESEYDYWGQGTLVTVSSPLAPDKTHTCPPCPAPEAAGAPSVFLFPPKPKDTLMISRTPEVTCVVVDVSHEDPEVKFNWYVDGVEVHNAKTKPREEQYNSTYRVVSVLTVLHQDWLNGKEYKCKVSNKALPAPIEKTISKAKGQPREPQVCTLPPSRDELTKNQVSLSCAVKGFYPSDIAVEWESNGQPENNYKTTPPVLDSDGSFFLVSKLTVDKSRWQQGNVFSCSVMHEALHNHYTQKSLSLSPGWSHPQFEK heavy 2: not shown,1.4 Abs,5.9 fold
DGL209 (bispecific antibody) heavy 1: QVQLVESGGGLVQAGGSLRLSCAASGRTFSKHAMGWFRQAPGKEREFVAAIDWSGGSTYYADSVKGRFTISRDNAKNTVYLQMDSLKPEDTAVYYCAADSYTDYAQLWLPELESEYDYWGQGTLVTVSSPLAPCPPCPAPEAAGAPSVFLFPPKPKDTLMISRTPEVTCVVVDVSHEDPEVKFNWYVDGVEVHNAKTKPREEQYNSTYRVVSVLTVLHQDWLNGKEYKCKVSNKALPAPIEKTISKAKGQPREPQVCTLPPSRDELTKNQVSLSCAVKGFYPSDIAVEWESNGQPENNYKTTPPVLDSDGSFFLVSKLTVDKSRWQQGNVFSCSVMHEALHNHYTQKSLSLSPGWSHPQFEK heavy 2: QLQLVESGGGLVQAGGSLRLSCAASRSITFSHNVMGWYRQAPGKQRELVASIGSGGSTNYVDSVKGRATISRDNAKKTVYLQMNSLKPEDTAVYYCGVVVGVYRGSLGQGTLVTVSSPLAPCPPCPAPEAAGAPSVFLFPPKPKDTLMISRTPEVTCVVVDVSHEDPEVKFNWYVDGVEVHNAKTKPREEQYNSTYRVVSVLTVLHQDWLNGKEYKCKVSNKALPAPIEKTISKAKGQPREPQVYTLPPCRDELTKNQVSLWCLVKGFYPSDIAVEWESNGQPENNYKTTPPVLDSDGSFFLYSKLTVDKSRWQQGNVFSCSVMHEALHNHYTQKSLSLSPGEPEA,2 Abs,8.7 fold
DGL210 (bispecific antibody) heavy 1: QVQLVESGGGLVQAGGSLRLSCAASGRTFSKHAMGWFRQAPGKEREFVAAIDWSGGSTYYADSVKGRFTISRDNAKNTVYLQMDSLKPEDTAVYYCAADSYTDYAQLWLPELESEYDYWGQGTLVTVSSGGGGSGGGGSGGGGSGGGGSCPPCPAPEAAGAPSVFLFPPKPKDTLMISRTPEVTCVVVDVSHEDPEVKFNWYVDGVEVHNAKTKPREEQYNSTYRVVSVLTVLHQDWLNGKEYKCKVSNKALPAPIEKTISKAKGQPREPQVCTLPPSRDELTKNQVSLSCAVKGFYPSDIAVEWESNGQPENNYKTTPPVLDSDGSFFLVSKLTVDKSRWQQGNVFSCSVMHEALHNHYTQKSLSLSPGWSHPQFEK heavy 2: QLQLVESGGGLVQAGGSLRLSCAASRSITFSHNVMGWYRQAPGKQRELVASIGSGGSTNYVDSVKGRATISRDNAKKTVYLQMNSLKPEDTAVYYCGVVVGVYRGSLGQGTLVTVSSGGGGSGGGGSGGGGSGGGGSCPPCPAPEAAGAPSVFLFPPKPKDTLMISRTPEVTCVVVDVSHEDPEVKFNWYVDGVEVHNAKTKPREEQYNSTYRVVSVLTVLHQDWLNGKEYKCKVSNKALPAPIEKTISKAKGQPREPQVYTLPPCRDELTKNQVSLWCLVKGFYPSDIAVEWESNGQPENNYKTTPPVLDSDGSFFLYSKLTVDKSRWQQGNVFSCSVMHEALHNHYTQKSLSLSPGEPEA,1.1 Abs,4.6 fold
